Where no end group is shown, it is not given here.
What was measured:
[1] = target: T1, IRS1-p110α E545K interaction in DLD1 cells (Homo sapiens, UniProt P35568); experiment: Co-IP after peptide added to culture medium of p110α E545K 3×FLAG KI DLD1 cells; assay type: cell-based; parameters: dose or concentration left out as unconfirmed; conditions: peptide added to cell culture medium for 16 hr
T1 construct: endogenous in cells; host or cells: DLD1 p110α E545K 3×FLAG knock-in cells (rAAV gene targeting of the endogenous allele)
T1 sequence (P35568 1-1242): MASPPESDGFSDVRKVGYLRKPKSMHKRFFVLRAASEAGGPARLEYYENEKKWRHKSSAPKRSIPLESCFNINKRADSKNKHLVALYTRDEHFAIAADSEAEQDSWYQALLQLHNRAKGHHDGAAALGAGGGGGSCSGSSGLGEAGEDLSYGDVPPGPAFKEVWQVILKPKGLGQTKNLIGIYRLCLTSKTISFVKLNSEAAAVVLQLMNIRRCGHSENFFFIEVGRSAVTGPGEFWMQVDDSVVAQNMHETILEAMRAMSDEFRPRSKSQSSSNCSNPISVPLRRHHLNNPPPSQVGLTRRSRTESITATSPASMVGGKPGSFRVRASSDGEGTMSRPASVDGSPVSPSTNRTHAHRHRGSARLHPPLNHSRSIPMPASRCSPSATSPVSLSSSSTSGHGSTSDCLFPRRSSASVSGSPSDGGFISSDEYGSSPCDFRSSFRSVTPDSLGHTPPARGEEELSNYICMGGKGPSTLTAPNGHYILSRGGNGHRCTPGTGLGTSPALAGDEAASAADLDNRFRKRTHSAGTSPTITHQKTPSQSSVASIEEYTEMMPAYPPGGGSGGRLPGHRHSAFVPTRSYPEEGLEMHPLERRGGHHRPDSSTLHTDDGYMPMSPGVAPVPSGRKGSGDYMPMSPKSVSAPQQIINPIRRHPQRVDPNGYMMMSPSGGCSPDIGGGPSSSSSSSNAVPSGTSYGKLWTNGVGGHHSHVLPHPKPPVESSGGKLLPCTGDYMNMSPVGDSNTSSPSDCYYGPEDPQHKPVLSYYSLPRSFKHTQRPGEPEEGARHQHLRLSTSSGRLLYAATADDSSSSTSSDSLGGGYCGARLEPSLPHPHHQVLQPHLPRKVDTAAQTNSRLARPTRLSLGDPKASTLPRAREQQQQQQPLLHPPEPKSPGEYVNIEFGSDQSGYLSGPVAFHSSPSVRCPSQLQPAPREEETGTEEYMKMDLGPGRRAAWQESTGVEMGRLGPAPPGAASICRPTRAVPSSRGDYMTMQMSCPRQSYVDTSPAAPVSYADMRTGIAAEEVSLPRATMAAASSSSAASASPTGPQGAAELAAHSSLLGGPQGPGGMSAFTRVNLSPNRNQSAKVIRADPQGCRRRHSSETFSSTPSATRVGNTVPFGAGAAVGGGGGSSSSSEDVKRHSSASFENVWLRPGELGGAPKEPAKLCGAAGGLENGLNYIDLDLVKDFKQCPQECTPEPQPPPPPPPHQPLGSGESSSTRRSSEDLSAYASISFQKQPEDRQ
Method: FIG. 4(A-F) illustrate: (A) Schematic diagram of linear and stapled WT and mutant peptides derived from p110α (SEQ ID NOs: 5, 6, 7 and 8). (B) Immunoblots of cell lysates immunoprecipitated with beads conjugated with anti-FLAG antibodies and then blotted with the indicated antibodies. Linear or stapled WT and mutant peptide were added into culture medium of the p110α E545K 3×FLAG KI cells for 16 hr. (C) Immunoblots of cell lysates immunoprecipitated with anti-p110α antibodies and then blotted with the indicated antibodies. Vaco481 CRC cells were treated with the stapled mutant peptides at the indicated concentration. (D) Immunoblots of cell lysates blotted with the indicated antibodies. The indicated cell lines were treated with the stapled mutant peptide. (E) Immunoblots of cell lysates blotted with the indicated antibodies. The indicated cancer cell lines were treated or untreated with stapled WT or mutant peptide at […] for 2 hr. (F) Immunoblots of cell lysates were blotted with the indicated antibodies. The indicated cancer cell lines were treated with or without […] of stapled mutant peptide for 2 hr.
(§1) For Co-immunoprecipitation (Co-IP), cells were harvested, washed with PBS, and then lysed in IP buffer (50 mMTris [pH 7.4], 150 mMNaCl, 5 mMEDTA [pH 8.0], 0.5% NP40, 1 mM PMSF, complete Protease Inhibitor Cocktail tablet [Roche]; supplemented with phosphatase inhibitors [1 mM Na3VO4, 20 mM NaF, 0.1 mM b-glycerophosphate, 20 mM sodium pyrophosphate] when necessary). For immunoblotting (IB) of phospho-specific proteins, unless stated otherwise, cells were lysed in urea buffer (100 mM NaH2PO4, 10 mM Tris-HCl, 8 M Urea, 1 mM Na3VO4, 20 mM NaF, 0.1 mM β-glycerophosphate, 20 mM sodium pyrophosphate, supplemented with complete Protease Inhibitor Cocktail tablet [Roche], pH 8.0). Lysates were then cleared by centrifugation (14,000 rpm, 10 min) and protein concentration in supernatants was determined with a BCA protein assay kit (Pierce, Rockford, Ill.). Equal amounts of total protein were used for IP or IB.

[2] = target: T2, interaction between p110α E545K and IRS1 (Homo sapiens, UniProt P35568); experiment: Peptide competition assay in cell lysates (anti-FLAG immunoprecipitation, anti-IRS1 blot); assay type: binding; conditions: peptide added into cell lysates of p110α E545K 3×FLAG KI cells
T2 construct: In KI DLD1 cells, IRS1 was co-immunoprecipitated with p110α E545K but not the WT p110α; endogenous in cells; host or cells: DLD1 p110α E545K 3×FLAG knock-in cells (rAAV gene targeting of the endogenous allele)
T2 sequence (P35568 1-1242): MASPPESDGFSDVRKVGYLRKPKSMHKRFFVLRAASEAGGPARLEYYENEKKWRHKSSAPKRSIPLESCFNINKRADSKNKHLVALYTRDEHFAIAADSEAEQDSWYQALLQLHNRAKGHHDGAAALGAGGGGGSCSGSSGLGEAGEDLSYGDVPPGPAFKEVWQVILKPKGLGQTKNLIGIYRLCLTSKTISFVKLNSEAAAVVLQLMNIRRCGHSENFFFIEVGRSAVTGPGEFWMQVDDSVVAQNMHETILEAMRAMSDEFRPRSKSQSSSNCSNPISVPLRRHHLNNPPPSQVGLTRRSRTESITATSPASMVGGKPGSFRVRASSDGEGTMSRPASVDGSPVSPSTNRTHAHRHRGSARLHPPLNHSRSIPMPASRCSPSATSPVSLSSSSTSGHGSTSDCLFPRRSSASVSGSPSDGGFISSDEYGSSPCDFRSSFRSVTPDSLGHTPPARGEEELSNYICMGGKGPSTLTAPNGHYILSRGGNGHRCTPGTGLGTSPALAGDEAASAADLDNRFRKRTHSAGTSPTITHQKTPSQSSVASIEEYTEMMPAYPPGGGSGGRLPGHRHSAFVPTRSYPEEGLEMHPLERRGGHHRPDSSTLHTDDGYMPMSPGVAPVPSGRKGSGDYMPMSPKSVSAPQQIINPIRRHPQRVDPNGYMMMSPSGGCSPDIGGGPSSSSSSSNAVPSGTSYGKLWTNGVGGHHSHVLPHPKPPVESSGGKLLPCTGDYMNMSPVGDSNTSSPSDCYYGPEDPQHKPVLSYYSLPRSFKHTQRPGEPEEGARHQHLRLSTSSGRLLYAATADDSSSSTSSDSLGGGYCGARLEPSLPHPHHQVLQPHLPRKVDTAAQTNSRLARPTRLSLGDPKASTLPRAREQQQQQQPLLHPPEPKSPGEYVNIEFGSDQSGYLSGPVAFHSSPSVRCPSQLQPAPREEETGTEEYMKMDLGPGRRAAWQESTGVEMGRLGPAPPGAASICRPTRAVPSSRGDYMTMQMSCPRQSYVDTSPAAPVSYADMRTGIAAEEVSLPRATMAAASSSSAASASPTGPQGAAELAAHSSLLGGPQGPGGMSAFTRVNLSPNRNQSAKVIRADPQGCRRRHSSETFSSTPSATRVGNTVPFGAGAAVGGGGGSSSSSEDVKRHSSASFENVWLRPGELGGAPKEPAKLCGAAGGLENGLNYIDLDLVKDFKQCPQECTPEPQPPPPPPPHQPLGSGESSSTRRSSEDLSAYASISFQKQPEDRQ
Method: FIGS. 3(A-M) illustrate: (A, B) Mapping peptides (P3, SEQ ID NO: 1; P4 SEQ ID NO: 2; P5, SEQ ID NO: 3; P6, SEQ ID NO: 4) derived from mutant p110α that inhibit interaction between IRS1 and p110α E545K. The indicated peptides were added into cell lysates made from the p110α E545K 3×FLAG KI cells. Cell lysates were immunoprecipitated with beads conjugated with anti-FLAG antibodies and then blotted with anti-IRS1 antibodies. (C) Immunoblots of cell lysates made from the p110α E545K 3×FLAG KI cells. Cell lysates were immunoprecipitated with beads conjugated with anti-FLAG antibodies and then blotted with the indicated antibodies. (D) Immunoblots of cell lysate of Myc-tagged IRS1 plasmid, which co-transfected an ABD domain deletion construct of the FLAG-tagged p110α E545K mutant (ΔABD), incubated with the indicated amount of stapled p110α mutant peptides, and then immunoprecipitated with anti-FLAG antibodies and blotted with the indicated antibodies. (J, K) Immunoblot and graph of purified recombinant p110α E545K mutant proteins mixed with the indicated components and quantified using an in vitro lipid kinase assay. (L, M) Immunoblots of the indicated cell lines serum-starved, stimulated with 1 μg/ml insulin for 30 min, and then treated with or without the indicated peptides. Cell lysates were blotted with the indicated antibodies. All error bars show mean±SEM. *p<0.05, **p<0.001, t test.
as §1
For in vitro peptide competition assay, the p110α mutant-FLAG-tagged cells were grown to 90% confluency, serum-starved overnight, and lysed as described previously. Peptides were then added to the cell lysates, incubated for 30 min at 4° C. and followed by immunoprecipitation assay.

[3] = target: insulin receptor substrate 1 (IRS1) (UniProt P35568)
[4] = target: T3, wild-type p110α (endogenous, untagged) (UniProt P42336 1-1068); experiment: pull-down with His-tagged IRS1 fragment from WT-only DLD1 lysates (FIG. 1B)
T3 construct: also called WT p110α
T3 sequence (P42336 whole entry, the tested form may be a part): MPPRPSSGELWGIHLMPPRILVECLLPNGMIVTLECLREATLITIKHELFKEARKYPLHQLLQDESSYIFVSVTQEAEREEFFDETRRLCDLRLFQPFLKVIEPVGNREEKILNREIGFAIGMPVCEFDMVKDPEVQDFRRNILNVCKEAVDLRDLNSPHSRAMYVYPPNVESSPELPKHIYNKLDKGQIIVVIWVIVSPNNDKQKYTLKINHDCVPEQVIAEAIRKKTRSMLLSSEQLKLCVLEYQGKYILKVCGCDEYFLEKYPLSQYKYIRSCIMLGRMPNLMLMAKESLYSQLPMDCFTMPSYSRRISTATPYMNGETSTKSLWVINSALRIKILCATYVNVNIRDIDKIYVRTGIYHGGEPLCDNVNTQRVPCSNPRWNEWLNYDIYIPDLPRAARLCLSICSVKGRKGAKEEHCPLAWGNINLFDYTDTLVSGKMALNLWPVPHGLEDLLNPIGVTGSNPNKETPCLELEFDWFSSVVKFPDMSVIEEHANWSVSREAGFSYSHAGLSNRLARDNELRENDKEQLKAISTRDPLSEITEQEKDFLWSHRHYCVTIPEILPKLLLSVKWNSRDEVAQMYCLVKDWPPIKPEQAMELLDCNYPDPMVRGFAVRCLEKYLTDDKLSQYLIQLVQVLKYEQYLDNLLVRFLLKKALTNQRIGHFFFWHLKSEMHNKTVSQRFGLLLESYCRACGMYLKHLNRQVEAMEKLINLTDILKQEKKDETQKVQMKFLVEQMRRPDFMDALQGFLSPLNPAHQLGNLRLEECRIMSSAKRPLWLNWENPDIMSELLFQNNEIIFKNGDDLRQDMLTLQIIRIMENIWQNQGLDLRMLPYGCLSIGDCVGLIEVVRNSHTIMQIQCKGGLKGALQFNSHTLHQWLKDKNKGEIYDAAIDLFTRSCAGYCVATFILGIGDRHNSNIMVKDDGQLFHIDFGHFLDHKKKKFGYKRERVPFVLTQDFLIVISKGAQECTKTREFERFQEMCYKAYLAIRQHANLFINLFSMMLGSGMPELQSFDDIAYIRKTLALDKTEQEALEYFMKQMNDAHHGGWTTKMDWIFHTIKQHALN
Description: The altered interaction properties of the mutant forms of p110α prompted us to map the minimal essential regions of IRS1 required for its interaction with p110α E545K mutant protein. For this study, we made a series of 6×His-tagged IRS1 truncation constructs (FIGS. 1A and 1C). The His-tagged IRS1 proteins were first expressed in Eschericia coli and purified with Ni-NTA beads. Then the purified proteins were used to pull down p110α from DLD1 cells expressing either the WT p110α only or the p110α E545K mutant only. With these proteins, we first mapped the mutant p110α interaction domain to the middle part of IRS1 (amino acid [AA] 585-962) (FIG. 1B). This fragment contains three YxxM motifs that mediate the pY dependent IRS1-p85 protein interaction. We thus constructed an unphosphorylatable IRS1Y3F mutant fragment (FIG. 1A). […] In contrast, neither of the single region deletions could interrupt the IRS1 mutant p110α interaction. […] Finally, similar results were also observed when the IRS1D was expressed in p110α E545K 3×FLAG KI DLD1 cells.

Molecule: 18-AA mutant peptide: linear 18-AA E545K mutant peptide corresponding to the C-terminal α-helical motif of p110α helical domain (SEITKQEKDFLWSHRHYC-OH; listed as Homo sapiens)
- disruption of IRS1-p110α E545K interaction in DLD1 cells [1]: neither the linear mutant peptide nor the stapled WT peptide affected the interaction
- inhibition of the interaction between p110α E545K and IRS1 [2]: moderate inhibition
- inhibition of the interaction between p110α E545K and IRS1 ([2]; listed as peptide corresponding to the C-terminal α-helical motif): inhibited

Molecule: 30-AA mutant peptide: linear 30-AA p110α E545K mutant peptide forming two α-helix domains flanking the mutation site (EQLKAISTRDPLSEITKQEKDFLWSHRHYC-OH; listed as Homo sapiens)
- inhibition of the interaction between p110α E545K and IRS1 [2]: inhibited

Molecule: N-terminal 21-AA mutant peptide: linear N-terminal 21-AA mutant peptide corresponding to the N-terminal α-helical motif (EQLKAISTRDPLSEITKQEKD-OH; listed as Homo sapiens)
- inhibition of the interaction between p110α E545K and IRS1 [2]: no effect

Molecule: WT peptide: linear 30-AA wild-type p110α counterpart of the 30-AA E545K mutant peptide (EQLKAISTRDPLSEITEQEKDFLWSHRHYC-OH; listed as Homo sapiens) [reference compound]
- inhibition of the interaction between p110α E545K and IRS1 [2]: failed to cause any inhibition

Molecule: p110α E545K mutant (endogenous, untagged)
- AKT phosphorylation [3]: the stapled mutant peptide, but not the WT counterpart, reduced AKT phosphorylation in mutant-only DLD1 cells
- AKT phosphorylation at both T308 and S473 residues [3]: treatment of cancer cell lines (DLD1, H460, and MDA-MB361) harboring p110α E545K ... with the stapled mutant peptide resulted in reduced AKT phosphorylation

B1: 6×His-tagged IRS1 middle fragment (AA 585-962) (other, UniProt P35568 585-962, looked up)
chain: EGLEMHPLERRGGHHRPDSSTLHTDDGYMPMSPGVAPVPSGRKGSGDYMPMSPKSVSAPQQIINPIRRHPQRVDPNGYMMMSPSGGCSPDIGGGPSSSSSSSNAVPSGTSYGKLWTNGVGGHHSHVLPHPKPPVESSGGKLLPCTGDYMNMSPVGDSNTSSPSDCYYGPEDPQHKPVLSYYSLPRSFKHTQRPGEPEEGARHQHLRLSTSSGRLLYAATADDSSSSTSSDSLGGGYCGARLEPSLPHPHHQVLQPHLPRKVDTAAQTNSRLARPTRLSLGDPKASTLPRAREQQQQQQPLLHPPEPKSPGEYVNIEFGSDQSGYLSGPVAFHSSPSVRCPSQLQPAPREEETGTEEYMKMDLGPGRRAAWQESTGVEM
notes: range 585-962; Expressed in E. coli BL21, purified on Ni-NTA beads; also called middle part of IRS1; middle fragment of IRS1; not shown: 6×His tag
- binding result [4]: no binding
